# T1: PDZD7_3, Q9H5P4
# T1 sequence (Q9H5P4 857-944, limits assumed, looked up): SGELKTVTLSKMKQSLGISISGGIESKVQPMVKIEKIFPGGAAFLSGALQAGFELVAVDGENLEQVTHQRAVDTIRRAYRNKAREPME
# T2: SNTG2, Q9NY99
# T2 sequence (Q9NY99 68-166, limits assumed, looked up): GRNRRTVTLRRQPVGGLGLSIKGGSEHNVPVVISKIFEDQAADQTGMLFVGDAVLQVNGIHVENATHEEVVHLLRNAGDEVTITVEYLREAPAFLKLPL
# T3: LNX2_2, Q8N448
# T3 sequence (Q8N448 334-432, limits assumed, looked up): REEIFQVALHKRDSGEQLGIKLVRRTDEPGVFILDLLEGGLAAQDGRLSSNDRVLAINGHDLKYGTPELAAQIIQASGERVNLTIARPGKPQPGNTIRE
# T4: SHANK1, Q9Y566
# T4 sequence (Q9Y566 658-767, limits assumed, looked up): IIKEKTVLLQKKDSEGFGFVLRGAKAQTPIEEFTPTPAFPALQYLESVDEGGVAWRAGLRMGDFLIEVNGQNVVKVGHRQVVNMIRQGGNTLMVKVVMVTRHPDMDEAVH
# T5: MPP2, Q14168
# T5 sequence (Q14168 180-250, limits assumed, looked up): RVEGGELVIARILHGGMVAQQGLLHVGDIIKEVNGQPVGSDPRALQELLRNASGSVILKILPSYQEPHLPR
# T6: PARD3B_1, Q8TEW8
# T6 sequence (Q8TEW8 196-299, limits assumed, looked up): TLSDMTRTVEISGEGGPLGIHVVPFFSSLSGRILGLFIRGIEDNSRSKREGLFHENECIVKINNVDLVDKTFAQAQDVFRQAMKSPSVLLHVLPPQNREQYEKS
# T7: SIPA1L2, Q9P2F8
# T7 sequence (Q9P2F8 945-1036, limits assumed, looked up): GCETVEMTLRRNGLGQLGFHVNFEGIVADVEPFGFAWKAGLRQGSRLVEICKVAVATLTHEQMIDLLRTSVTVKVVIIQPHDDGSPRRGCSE
# T8: DLG3_3, Q92796
# T8 sequence (Q92796 374-475, limits assumed, looked up): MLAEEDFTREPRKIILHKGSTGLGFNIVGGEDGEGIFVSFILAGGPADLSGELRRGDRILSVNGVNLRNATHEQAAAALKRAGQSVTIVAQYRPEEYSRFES
# T9: GRIP1_4, Q9Y3R0
# T9 sequence (Q9Y3R0 467-571, limits assumed, looked up): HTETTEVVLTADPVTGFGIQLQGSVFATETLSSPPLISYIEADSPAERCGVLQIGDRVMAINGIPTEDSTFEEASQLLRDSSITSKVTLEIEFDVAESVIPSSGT
# T10: PTPN13_1, Q12923
# T10 sequence (Q12923 1088-1188, limits assumed, looked up): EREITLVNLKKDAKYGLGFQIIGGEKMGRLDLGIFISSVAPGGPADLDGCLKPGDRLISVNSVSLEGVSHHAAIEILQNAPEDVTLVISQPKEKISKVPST
# T11: DFNB31_1, Q9P202
# T11 sequence (Q9P202 135-233, limits assumed, looked up): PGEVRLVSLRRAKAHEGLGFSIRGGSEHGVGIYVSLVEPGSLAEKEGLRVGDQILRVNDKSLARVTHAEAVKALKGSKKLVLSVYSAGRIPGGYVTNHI
# Tests used:
# Experiment in all cases: holdup assay
# Set-up in all cases: key: below the threshold = too weak to quantify, mostly under pKd 3.1 to 4
# Settings in all cases: plain residues with an end cap or a label only (N-terminal biotin on a linker: ado-ado)
# CASK, O14936 = target: CASK, O14936
# PDZD7_3, Q9H5P4 = target: T1, PDZD7_3, Q9H5P4
# NHERF4_1, Q86UT5-2 = target: NHERF4_1, Q86UT5-2
# SNTG2, Q9NY99 = target: T2, SNTG2, Q9NY99
# GRASP, Q7Z6J2 = target: GRASP, Q7Z6J2
# NHERF4_2, Q86UT5 = target: NHERF4_2, Q86UT5
# LNX2_2, Q8N448 = target: T3, LNX2_2, Q8N448
# MAGI1_1, Q96QZ7 = target: MAGI1_1, Q96QZ7
# SCRIB_3, Q14160 = target: SCRIB_3, Q14160
# IL16_1, Q14005 = target: IL16_1, Q14005
# SHANK1, Q9Y566 = target: T4, SHANK1, Q9Y566
# MPP2, Q14168 = target: T5, MPP2, Q14168
# PARD3B_1, Q8TEW8 = target: T6, PARD3B_1, Q8TEW8
# Inadl_9, Q8NI35 = target: Inadl_9, Q8NI35
# NHERF2_2, Q15599 = target: NHERF2_2, Q15599
# ARHGEF12, Q9NZN5-2 = target: ARHGEF12, Q9NZN5-2
# GRID2IP_2, A4D2P6 = target: GRID2IP_2, A4D2P6
# SIPA1L2, Q9P2F8 = target: T7, SIPA1L2, Q9P2F8
# FRMPD4, Q14CM0 = target: FRMPD4, Q14CM0
# DLG3_3, Q92796 = target: T8, DLG3_3, Q92796
# LNX1_1, Q8TBB1 = target: LNX1_1, Q8TBB1
# GRIP1_4, Q9Y3R0 = target: T9, GRIP1_4, Q9Y3R0
# MAGI2_6, Q86UL8 = target: MAGI2_6, Q86UL8
# LDB3, O75112 = target: LDB3, O75112
# PTPN13_1, Q12923 = target: T10, PTPN13_1, Q12923
# DFNB31_1, Q9P202 = target: T11, DFNB31_1, Q9P202
# Sequence of NHERF2_2, Q15599 (Q15599 142-238): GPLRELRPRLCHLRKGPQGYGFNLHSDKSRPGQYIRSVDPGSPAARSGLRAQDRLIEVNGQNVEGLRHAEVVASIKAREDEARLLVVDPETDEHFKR
# Sequence of CASK, O14936 (O14936 487-570): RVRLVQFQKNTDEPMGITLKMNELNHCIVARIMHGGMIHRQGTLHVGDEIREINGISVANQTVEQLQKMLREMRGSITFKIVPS
# Sequence of Inadl_9, Q8NI35 (Q8NI35 1530-1615): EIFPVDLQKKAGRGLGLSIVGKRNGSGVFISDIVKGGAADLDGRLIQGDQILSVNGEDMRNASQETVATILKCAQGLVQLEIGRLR
# Sequence of ARHGEF12, Q9NZN5-2 (Q9NZN5 other isoform, or with tags, fused parts or gaps): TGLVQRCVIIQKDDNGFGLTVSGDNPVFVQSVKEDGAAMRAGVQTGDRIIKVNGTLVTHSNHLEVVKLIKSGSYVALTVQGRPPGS
# Sequence of FRMPD4, Q14CM0 (Q14CM0 67-160): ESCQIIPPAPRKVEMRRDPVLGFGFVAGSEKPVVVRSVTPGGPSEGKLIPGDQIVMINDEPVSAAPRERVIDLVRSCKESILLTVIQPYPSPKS
# Sequence of GRID2IP_2, A4D2P6 (A4D2P6 272-370): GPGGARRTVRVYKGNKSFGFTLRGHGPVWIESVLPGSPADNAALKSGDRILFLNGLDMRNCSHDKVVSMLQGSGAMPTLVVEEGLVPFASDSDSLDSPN
# Sequence of SCRIB_3, Q14160 (Q14160 999-1103): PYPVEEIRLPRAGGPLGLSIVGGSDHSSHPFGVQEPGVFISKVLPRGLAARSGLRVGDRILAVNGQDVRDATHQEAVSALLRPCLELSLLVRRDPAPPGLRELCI
# Sequence of IL16_1, Q14005 (Q14005 210-306): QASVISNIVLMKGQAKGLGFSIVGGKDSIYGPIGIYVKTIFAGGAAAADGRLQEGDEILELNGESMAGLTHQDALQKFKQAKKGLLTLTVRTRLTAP
# Sequence of GRASP, Q7Z6J2 (Q7Z6J2 96-193): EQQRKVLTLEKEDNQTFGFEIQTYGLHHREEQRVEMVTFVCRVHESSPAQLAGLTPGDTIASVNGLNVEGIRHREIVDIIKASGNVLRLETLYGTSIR
# Sequence of LDB3, O75112 (O75112 1-94): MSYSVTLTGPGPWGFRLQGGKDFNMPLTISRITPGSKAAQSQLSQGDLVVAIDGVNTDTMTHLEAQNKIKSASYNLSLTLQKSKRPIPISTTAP
# Sequence of MAGI1_1, Q96QZ7 (Q96QZ7 1-106): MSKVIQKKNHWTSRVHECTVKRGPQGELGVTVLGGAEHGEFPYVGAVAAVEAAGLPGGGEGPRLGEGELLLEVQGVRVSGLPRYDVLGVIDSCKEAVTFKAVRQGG
# Sequence of LNX1_1, Q8TBB1 (Q8TBB1 261-371): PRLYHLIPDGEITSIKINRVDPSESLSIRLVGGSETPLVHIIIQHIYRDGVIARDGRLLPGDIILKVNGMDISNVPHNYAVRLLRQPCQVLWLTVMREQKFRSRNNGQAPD
# Sequence of NHERF4_2, Q86UT5 (Q86UT5 220-308): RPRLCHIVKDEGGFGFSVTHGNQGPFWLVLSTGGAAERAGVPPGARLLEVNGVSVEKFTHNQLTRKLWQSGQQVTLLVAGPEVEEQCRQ
# Sequence of NHERF4_1, Q86UT5-2 (Q86UT5 other isoform, or with tags, fused parts or gaps): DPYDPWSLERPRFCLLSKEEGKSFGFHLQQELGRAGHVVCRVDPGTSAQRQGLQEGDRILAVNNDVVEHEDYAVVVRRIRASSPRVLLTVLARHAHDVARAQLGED
# Sequence of MAGI2_6, Q86UL8 (Q86UL8 1141-1229): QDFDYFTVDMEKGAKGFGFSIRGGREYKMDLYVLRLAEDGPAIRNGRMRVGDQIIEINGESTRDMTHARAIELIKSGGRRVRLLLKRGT
Binder,"pKd (CASK, O14936)","pKd (PDZD7_3, Q9H5P4)","pKd (NHERF4_1, Q86UT5-2)","pKd (SNTG2, Q9NY99)","pKd (GRASP, Q7Z6J2)","pKd (NHERF4_2, Q86UT5)","pKd (LNX2_2, Q8N448)","pKd (MAGI1_1, Q96QZ7)","pKd (SCRIB_3, Q14160)","pKd (IL16_1, Q14005)","pKd (SHANK1, Q9Y566)","pKd (MPP2, Q14168)","pKd (PARD3B_1, Q8TEW8)","pKd (Inadl_9, Q8NI35)","pKd (NHERF2_2, Q15599)","pKd (ARHGEF12, Q9NZN5-2)","pKd (GRID2IP_2, A4D2P6)","pKd (SIPA1L2, Q9P2F8)","pKd (FRMPD4, Q14CM0)","pKd (DLG3_3, Q92796)",further results
"TSSMRGMDAV [RSRC2, Q7L4I2]",below the threshold,below the threshold,3.91,below the threshold,below the threshold,below the threshold,below the threshold,below the threshold,below the threshold,below the threshold,below the threshold,below the threshold,below the threshold,below the threshold,below the threshold,below the threshold,below the threshold,below the threshold,below the threshold,below the threshold,"pKd (LNX1_1, Q8TBB1): below the threshold; pKd (GRIP1_4, Q9Y3R0): below the threshold; pKd (MAGI2_6, Q86UL8): below the threshold; pKd (LDB3, O75112): below the threshold; pKd (PTPN13_1, Q12923): below the threshold; pKd (DFNB31_1, Q9P202): below the threshold"
"KKMPSIESDV [GRIN2A, Q12879]",below the threshold,below the threshold,below the threshold,4.41,below the threshold,below the threshold,below the threshold,below the threshold,4.85,4.05,below the threshold,below the threshold,below the threshold,below the threshold,below the threshold,3.69,3.59,below the threshold,below the threshold,below the threshold,"pKd (LNX1_1, Q8TBB1): 4.04; pKd (GRIP1_4, Q9Y3R0): below the threshold; pKd (MAGI2_6, Q86UL8): 4.91; pKd (LDB3, O75112): below the threshold; pKd (PTPN13_1, Q12923): below the threshold; pKd (DFNB31_1, Q9P202): below the threshold"
"TACCHSETVV [TGFA, P01135]",below the threshold,5.04,below the threshold,4.38,3.5,below the threshold,5.21,below the threshold,4.14,4.1,below the threshold,below the threshold,below the threshold,below the threshold,below the threshold,3.56,below the threshold,below the threshold,below the threshold,3.85,"pKd (LNX1_1, Q8TBB1): 4.12; pKd (GRIP1_4, Q9Y3R0): below the threshold; pKd (MAGI2_6, Q86UL8): 3.81; pKd (LDB3, O75112): below the threshold; pKd (PTPN13_1, Q12923): below the threshold; pKd (DFNB31_1, Q9P202): 4.02"
"HSGYRLNDYV [CLDN14, O95500]",below the threshold,4.19,3.57,below the threshold,3.74,below the threshold,4.56,below the threshold,below the threshold,below the threshold,below the threshold,below the threshold,below the threshold,3.58,below the threshold,below the threshold,3.63,below the threshold,3.58,below the threshold,"pKd (LNX1_1, Q8TBB1): below the threshold; pKd (GRIP1_4, Q9Y3R0): below the threshold; pKd (MAGI2_6, Q86UL8): 4.12; pKd (LDB3, O75112): below the threshold; pKd (PTPN13_1, Q12923): below the threshold; pKd (DFNB31_1, Q9P202): below the threshold"

# From paper PMC9482650, “Quantitative fragmentomics allow affinity mapping of interactomes” (Nature Communications, 2022)
